1 substance from article PMC10528910 can be followed below.

The target of the assay is syntrophin PDZ domain (UniProt Q61234).

For orientation: Kd means a measure of binding affinity in units of concentration. A low value points to higher affinity.

Turning to “VKESLV ligand (syntrophin PDZ ligand) (peptide)”, the dissociation constant Kd was determined as 1.97 µM.
